Laboratory results from patent US8357523B2, “Beta-glucosidase variant enzymes and related polynucleotides” (Codexis, Inc., priority 2009, dated 2013).

B1: CelA wildtype: wildtype Azospirillum irakense β-glucosidase (CelA) (SEQ ID NO: 4) (protein)
chain: STAIAQEGAAPAAILHPEKWPRPATQRLIDPAVEKRVDALLKQLSVEEKVGQVIQGDIGTITPEDLRKYPLGSILAGGNSGPNGDDRAPPKEWLDLADAFYRVSLEKRPGHTPIPVLFGIDAVHGHGNIGSATIFPHNIALGATHDPELLRRIGEVTAVEMAATGIDWTFAPALSVVRDDRWGRTYEGFSEDPEIVAAYSAAIVEGVQGKFGSKDFMAPGRIVASAKHFLADGGTDQGRDQGDARISEDELIRIHNAGYPPAIDAGVLTVMASFSSWQGIKHHGHKQLLTDVLKGQMGFNGFIVGDWNAHDQVPGCTKFNCPTSLIAGLDMYMAADSWKQLYENTLAQVKDGTIPMARLDDAVRRILRVKVLAGLFEKPAPKDRPGLPGLETLGSPEHRAVGREAVRKSLVLLKNDKGTLPLSPKARVLVAGDGADNIGKQSGGWTISWQGTGNRNDEFPGATSILGGIRDAVADAGGSVEFDVAGQYKTKPDVAIVVFGEEPYAEFQGDVETLEYQPDQKQDLALLKKLKDQGIPVVAVFLSGRPMWVNPELNASDAFVAAWLPGTEGGGVADVLFTDKAGKVQHDFAGKLSYSWPRTAAQTTVNRGDADYNPLFAYGYGLTYKDKSKVGTLPEESGVPAEARQNAGIYFRAGALRLPGRFL
B2: T2A + A5T + I14M + N79D + G127N + A143M + H145R + V159E + A198S + A207F + F211Y + I222A + S225C + Q508R + A3R + S73A + V177P + I2037-des[A647-L663] (protein)
chain: SARITQEGAAPAAMLHPEKWPRPATQRLIDPAVEKRVDALLKQLSVEEKVGQVIQGDIGTITPEDLRKYPLGAILAGGDSGPNGDDRAPPKEWLDLADAFYRVSLEKRPGHTPIPVLFGIDAVHGHNNIGSATIFPHNIALGMTRDPELLRRIGEVTAEEMAATGIDWTFAPALSVPRDDRWGRTYEGFSEDPEIVASYSAAYVEGFQGKYGSKDFMAPGRAVACAKHFLADGGTDQGRDQGDARISEDELIRIHNAGYPPAIDAGVLTVMASFSSWQGIKHHGHKQLLTDVLKGQMGFNGFIVGDWNAHDQVPGCTKFNCPTSLIAGLDMYMAADSWKQLYENTLAQVKDGTIPMARLDDAVRRILRVKVLAGLFEKPAPKDRPGLPGLETLGSPEHRAVGREAVRKSLVLLKNDKGTLPLSPKARVLVAGDGADNIGKQSGGWTISWQGTGNRNDEFPGATSILGGIRDAVADAGGSVEFDVAGQYKTKPDVAIVVFGEEPYAEFRGDVETLEYQPDQKQDLTLLKKLKDQGIPVVAVFLSGRPMWVNPELNASDAFVAAWLPGTEGGGVADVLFTDKAGKVQHDFAGKLSYSWPRTAAQTTVNRGDADYNPLFAYGYGLTYKDKSKVGTLPEESGVPAEARQN

Assays:
Format in all cases: biochemical
[1] = pNPG (p-nitrophenyl-β-D-glucopyranoside) assay of β-glucosidase activity; conditions: media supernatant of shake flask culture
Procedure: A single microbial colony of Bacillus megaterium containing the vector prepared in Example 1 with the CelA gene was inoculated into 3 ml Luria-Bertani (LB) Broth ([…]) containing 10 μg/mL tetracycline. Cells were grown overnight (at least 16 hrs) in an incubator at 37° C. with shaking at 250 rpm. […]
A colorimetric pNPG (p-nitrophenyl-(β-D-glucopyranoside)-based assay was used for measuring β-glucosidase activity. In a total volume of 100 μL, 20 μL clear media supernatant containing β-glucosidase enzyme was added to 4 mM pNPG (Sigma-Aldrich, Inc. St. Louis, Mo.) solution in 50 mM sodium phosphate buffer at pH6.5. The reactions were incubated at pH 6.5, 45° C. for 1 hour. The reaction mixture was quenched with 100 μL of 1M sodium carbonate pH 11 solution. The absorbance of the solution was measured at 405 nm to determine the conversion of pNPG to p-nitrophenol. The release of p-nitrophenol (ε=17,700 M−1 cm−1) was measured at 405 nm to calculate β-glucosidase activity. […]

[2] = Activity profile at different temperatures and pH using cellobiose (10 g/L) as substrate
Procedure: β-glucosidase activity was also determined using a cellobiose assay, which used cellobiose as substrate. In a total volume of 100 μL, 25 μL clear media supernatant containing CelA enzyme was added to 10 g/L cellobiose (Fluka Cat. No. 22150, Sigma-Aldrich, Inc., St. Louis, Mo.) in 100 mM sodium phosphate buffer (pH 6-7) or sodium acetate buffer (pH 5-5.5). The reaction was incubated at 45-70° C. for an appropriate time (25 minutes to overnight depending on the enzyme concentration) while shaking. Glucose production was determined using an enzymatic glucose assay (K-GLUC, Megazyme, Ireland). 10 μl of each reaction was added to 190 μl GOPOD reagent (supplied as part of the K-GLUC assay kit). The reaction was incubated at 45° C. for 20 minutes and the absorbance of the solution was measured at 510 nm. The GOPOD reagent contains 50 mM Potassium phosphate buffer pH7.4, 0.011M p-hydroxybenzoic acid, 0.008% w/v sodium azide, glucose oxidase (>12,000 U/L), peroxidase (>650 U/L) and 80 mg/L 4-aminoantipyrine. The glucose oxidase enzyme in the reagent reacts with any glucose present in the sample and produces hydrogen peroxide which then reacts with the 4-aminoantipyrine to produce a quinoneimine dye in quantities proportionate with the amount of glucose present and can be measured spectrophotometrically at 510 nm. Detectable β-glucosidase activity was observed under high throughput screening conditions (i.e., pH 7, 50° C.).
The native CelA activity profile was investigated at different temperatures (40-55° C.) and pH (5.0-8.0) using cellobiose (10 g/L) as a substrate. The experimental and analytical procedures are described in Example 5.
The activity profiles for Variant Nos. 264, 366, 391, 463, and 529 were determined at different temperatures and pH using cellobiose (10 g/L) as a substrate. The experimental and analytical procedures are described in Example 5, incubating the variant with cellobiose at temperatures in the range of 45-80. The results are depicted in FIGS. 7-11. […] The temperature and pH profile for this variant is depicted in FIG. 7. […] The temperature and pH profile for this variant is depicted in FIG. 8. […] The temperature and pH profile for this variant is depicted in FIG. 9. […] (with the pH 6 optimum determined by extrapolation). The temperature and pH profile for this variant is depicted in FIG. 10. […] The temperature and pH profile for this variant is depicted in FIG. 11.

[3] = Enzyme stability: residual activity on pNPG after pre-incubation at high temperature and low pH; conditions: residual activity on pNPG at pH 7, 30° C.
Procedure: Residual activity is determined by exposing the enzyme to stress conditions of elevated temperature for a period of time and then determining the β-glucosidase activity. The β-glucosidase activity of the enzyme exposed to stress conditions (“a”) is compared to that of a control in which the enzyme is not exposed to the stress conditions (“b”), and residual activity is equal to the ratio a/b. Exemplary conditions for determining thermostability are provided in Examples 9 and 13. In one embodiment the enzymes are exposed to stress conditions of 50° C. at pH 5.5 or 55° C. at pH 5.0 or 55° C. at pH 5.5, or 65° C. at pH 5.0 for about 1 hour, and assayed at 30° C., pH 7, for about 0.1 hour.
A colorimetric pNPG (p-nitrophenyl-(β-D-glucopyranoside)-based assay was used for measuring β-glucosidase activity. In a total volume of 100 μL, 20 μL clear media supernatant containing β-glucosidase enzyme was added to 4 mM pNPG (Sigma-Aldrich, Inc. St. Louis, Mo.) solution in 50 mM sodium phosphate buffer at pH6.5. The reactions were incubated at pH 6.5, 45° C. for 1 hour. The reaction mixture was quenched with 100 μL of 1M sodium carbonate pH 11 solution. The absorbance of the solution was measured at 405 nm to determine the conversion of pNPG to p-nitrophenol. The release of p-nitrophenol (ε=17,700 M−1 cm−1) was measured at 405 nm to calculate β-glucosidase activity. Detectable β-glucosidase activity was observed under high throughput screening conditions (pH 7, 50° C.).
Four CelA variants and wildtype CelA were characterized to determine their stabilities at high temperature (55° C.) and low pH (pH5.5) using the method of Example 5A. The samples containing various CelA variant enzymes were pre-incubated at pH 5.5, 55° C. for 0-6 hrs. The residual enzyme activity after the thermal challenge was measured using pNPG as substrate at pH 7, 30° C. for 1 hr. […] The mutations listed in the table are indicated relative to SEQ ID NO: 4, the wildtype CelA. These sequences included residues GTS prior to the N-terminus of SEQ ID NO: 4 (prepared as described in Example 1). […]

[4] = Activity profile at different temperatures and pH using cellobiose (10 g/L) as substrate; remark: listed apart in the source
[5] = Glucose inhibition (glucose tolerance), cellobiose assay with cellobiose consumption determined by HPLC; conditions: pH 5, 55° C.; glucose concentration at which enzyme activity is 50% of the activity with no glucose

Molecule | activity using pNPG as substrate [1] | pH of optimum activity [2] [pH] | temperature of optimum activity [2] [°C] | % residual activity after 10 mins @ pH 5.5, 55° C. ([3]; pre-incubation 10 mins at pH 5.5, 55° C., 1 hr) [%] | % residual activity after 1 hour @ pH 5.5, 55° C. ([3]; pre-incubation 1 hour at pH 5.5, 55° C.) [%] | % residual activity after 6 hours @ pH 5.5, 55° C. ([3]; pre-incubation 6 hours at pH 5.5, 55° C., 1 hr) [%] | CelA activity at pH 4 and 70° C. [4] | IC50 for glucose [5]
B1 | confirmed | 6.0 | 47 | 0 | 0 | 0 | detectable | 
B2 |  |  |  |  |  |  |  | greater than 100 g/l
